According to patent US20180298404A1:

Key:
[1] = molecular target: Mamu-E*02:20, single transfectant (rhesus macaque); assay: cell-based or functional assay
[2] = molecular target: Mamu-E*02:04, single transfectant (rhesus macaque); assay: cell-based or functional assay

Substance | peptide dose pulsed on the transfectant that triggers CD8+ T cells (ICS) [1] [nM] | peptide dose pulsed on the transfectant that triggers CD8+ T cells (ICS) [2] [nM]
SIVgag476-484 optimal 9mer peptide | < 1 | < 1
SIVgag482-490 optimal 9mer peptide | < 1 | < 1
SIVgag259-267 optimal 9mer peptide | < 1 | < 1
SIVgag276-284 optimal 9mer peptide | < 1 | < 1
